Data on one substance can be found in publication PMC4047826.

The target of this experiment is Dead streptavidin subunit with a polyaspartate insertion in the 3/4 loop (Dd) (Streptomyces avidinii) (UniProt P22629). The experiment can be described thus: mixed refold, anion-exchange chromatography and SDS-PAGE without boiling; subunits refolded together from inclusion bodies into PBS; tetramers resolved on Mono-Q (20 mM Tris-HCl pH 8.0, 0-1 M NaCl gradient); peaks run on SDS-PAGE unboiled (tetramer) or boiled (subunit composition), Coomassie.

The substance “Dead streptavidin subunit with a polyaspartate insertion in the 3/4 loop (Dd) (from UniProt P22629 37-163) (domain or fragment)” yielded a stoichiometry N of 4.
